In experiment [1] the target is T1, recombinant human αvβ8 protein (PARS-17102) (human).
T1 construct: also called hu.aVb8.17102; not shown: C-terminal acid/basic coils and any purification tags
T1 alpha: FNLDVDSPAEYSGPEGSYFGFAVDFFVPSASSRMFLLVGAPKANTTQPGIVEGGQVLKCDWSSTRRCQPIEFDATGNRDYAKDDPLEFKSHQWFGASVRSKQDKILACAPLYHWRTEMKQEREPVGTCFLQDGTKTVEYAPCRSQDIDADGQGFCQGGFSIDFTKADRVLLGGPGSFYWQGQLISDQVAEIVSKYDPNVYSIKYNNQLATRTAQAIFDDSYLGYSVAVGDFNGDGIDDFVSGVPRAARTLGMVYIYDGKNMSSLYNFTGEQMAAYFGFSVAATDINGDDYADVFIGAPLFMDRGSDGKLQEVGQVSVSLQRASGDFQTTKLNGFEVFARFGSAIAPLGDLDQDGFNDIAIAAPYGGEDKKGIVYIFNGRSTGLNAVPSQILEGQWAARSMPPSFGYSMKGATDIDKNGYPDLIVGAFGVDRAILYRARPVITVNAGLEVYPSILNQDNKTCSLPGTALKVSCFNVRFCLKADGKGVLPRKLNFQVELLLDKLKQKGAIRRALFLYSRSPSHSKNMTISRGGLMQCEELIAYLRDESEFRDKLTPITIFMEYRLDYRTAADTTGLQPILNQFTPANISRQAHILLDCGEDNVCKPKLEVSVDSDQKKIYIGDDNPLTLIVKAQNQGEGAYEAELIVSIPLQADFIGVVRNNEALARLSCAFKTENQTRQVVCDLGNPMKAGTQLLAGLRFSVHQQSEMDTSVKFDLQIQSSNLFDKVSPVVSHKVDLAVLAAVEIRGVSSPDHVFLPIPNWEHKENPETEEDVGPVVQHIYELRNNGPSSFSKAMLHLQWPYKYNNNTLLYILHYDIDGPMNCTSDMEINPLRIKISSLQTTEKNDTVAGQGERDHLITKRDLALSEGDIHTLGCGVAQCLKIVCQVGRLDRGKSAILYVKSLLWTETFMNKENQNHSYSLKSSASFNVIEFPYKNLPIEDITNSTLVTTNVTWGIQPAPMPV
T1 beta: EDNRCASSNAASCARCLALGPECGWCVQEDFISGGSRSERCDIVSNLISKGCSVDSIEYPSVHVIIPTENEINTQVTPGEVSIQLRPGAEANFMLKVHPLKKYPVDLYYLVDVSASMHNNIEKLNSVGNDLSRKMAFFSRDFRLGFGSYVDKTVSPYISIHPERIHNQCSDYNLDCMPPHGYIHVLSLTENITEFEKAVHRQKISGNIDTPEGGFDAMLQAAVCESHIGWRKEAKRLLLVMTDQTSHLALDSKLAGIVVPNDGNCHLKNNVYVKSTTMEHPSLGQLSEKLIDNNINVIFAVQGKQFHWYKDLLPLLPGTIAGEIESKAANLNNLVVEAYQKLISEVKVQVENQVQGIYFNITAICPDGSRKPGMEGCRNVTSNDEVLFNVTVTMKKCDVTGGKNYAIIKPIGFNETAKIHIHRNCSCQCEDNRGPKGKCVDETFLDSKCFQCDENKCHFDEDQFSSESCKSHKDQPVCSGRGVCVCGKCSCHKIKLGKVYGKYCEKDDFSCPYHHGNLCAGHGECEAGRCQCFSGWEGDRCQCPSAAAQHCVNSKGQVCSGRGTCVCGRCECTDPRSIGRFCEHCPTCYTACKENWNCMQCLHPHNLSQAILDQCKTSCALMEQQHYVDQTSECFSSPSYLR
In words: SPR binding assay, experiment 2, antibody as ligand, aVb8 as sample.

The target in another experiment is T2, cyno.aVb8.13650 (cynomolgus, UniProt A0A2K5WCD3 31-992; G7P0S0 43-684).
T2 construct: Carries another lot/construct number than cyno.aVb8-19393; kept apart; also called cynomolgus αvβ8
The experiment is described as above.

The target of experiment [2] is T3, recombinant mouse αvβ8 protein (PARS-17103) (murine, UniProt P43406 31-988; Q0VBD0 43-681, limits assumed).
T3 construct: Made in house; also called mu.aVb8.17103
T3 sequence (P43406 31-988 limits assumed, chain 1 of 2): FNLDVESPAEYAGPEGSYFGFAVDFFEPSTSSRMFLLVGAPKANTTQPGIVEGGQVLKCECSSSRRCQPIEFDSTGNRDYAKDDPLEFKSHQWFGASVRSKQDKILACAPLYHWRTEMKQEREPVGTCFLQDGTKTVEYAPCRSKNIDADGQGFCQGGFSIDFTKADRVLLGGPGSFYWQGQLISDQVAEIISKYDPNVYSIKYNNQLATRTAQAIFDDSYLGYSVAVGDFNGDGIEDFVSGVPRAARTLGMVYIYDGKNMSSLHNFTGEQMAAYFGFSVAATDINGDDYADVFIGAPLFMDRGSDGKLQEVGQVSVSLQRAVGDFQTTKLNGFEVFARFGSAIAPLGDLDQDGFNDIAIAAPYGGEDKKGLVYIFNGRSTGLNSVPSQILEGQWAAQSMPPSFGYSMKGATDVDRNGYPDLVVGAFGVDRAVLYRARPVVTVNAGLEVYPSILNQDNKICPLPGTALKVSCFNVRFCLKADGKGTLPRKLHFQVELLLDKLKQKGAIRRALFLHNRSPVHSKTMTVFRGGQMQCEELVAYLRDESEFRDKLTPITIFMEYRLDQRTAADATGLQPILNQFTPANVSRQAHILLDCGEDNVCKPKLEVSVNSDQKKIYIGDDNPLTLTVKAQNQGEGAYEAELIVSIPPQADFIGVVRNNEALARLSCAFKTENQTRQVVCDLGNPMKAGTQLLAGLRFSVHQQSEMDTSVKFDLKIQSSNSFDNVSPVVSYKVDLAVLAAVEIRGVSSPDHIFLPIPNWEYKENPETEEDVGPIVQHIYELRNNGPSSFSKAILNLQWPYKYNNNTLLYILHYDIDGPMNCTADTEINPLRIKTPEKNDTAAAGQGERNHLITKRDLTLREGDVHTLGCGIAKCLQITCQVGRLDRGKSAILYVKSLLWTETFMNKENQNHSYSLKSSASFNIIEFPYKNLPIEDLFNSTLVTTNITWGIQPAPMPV
T3 sequence (Q0VBD0 43-681 limits assumed, chain 2 of 2): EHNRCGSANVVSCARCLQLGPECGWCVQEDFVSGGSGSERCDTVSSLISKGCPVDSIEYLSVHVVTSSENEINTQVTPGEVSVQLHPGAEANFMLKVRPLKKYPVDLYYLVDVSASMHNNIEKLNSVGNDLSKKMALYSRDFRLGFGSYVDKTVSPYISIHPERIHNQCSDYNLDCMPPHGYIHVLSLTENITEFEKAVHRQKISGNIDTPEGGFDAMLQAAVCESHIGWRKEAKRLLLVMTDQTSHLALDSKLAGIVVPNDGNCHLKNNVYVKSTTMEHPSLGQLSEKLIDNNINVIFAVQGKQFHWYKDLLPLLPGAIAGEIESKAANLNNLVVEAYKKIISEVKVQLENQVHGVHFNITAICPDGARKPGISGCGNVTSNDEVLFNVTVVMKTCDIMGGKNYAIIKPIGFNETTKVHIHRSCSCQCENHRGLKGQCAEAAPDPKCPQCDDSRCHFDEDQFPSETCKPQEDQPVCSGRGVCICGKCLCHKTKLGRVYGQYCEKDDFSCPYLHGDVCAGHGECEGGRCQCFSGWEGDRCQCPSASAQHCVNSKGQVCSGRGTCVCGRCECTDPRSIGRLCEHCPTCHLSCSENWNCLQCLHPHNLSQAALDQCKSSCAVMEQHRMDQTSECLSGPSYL
Described as above.

The target in experiment [3] is T1, recombinant human αvβ8 protein …. Description: SPR, Biacore T200, Protein A capture, human αvβ8 analyte 0-100 nM, 37 C, 1:1 model (comparison with hC6D4, FIG. 9A). The method, then:
The antibodies were first captured either on a Biacore™ Protein A biosensor chip (Cytiva Life Sciences) or on an anti-murine Fc chip to achieve approximately 60 response units. Binding measurements were performed using a running buffer composed of 10 mM HEPES (pH 7.4), 150 mM NaCl, 0.5 mM CaCl₂), and 0.005% Surfactant P20 (Cytiva Life Sciences). For comparison between αvβ8-65 and hC6D4, a 5-fold dilution series of human αvβ8 (range, 0-100 nM in running buffer) was injected into the Biacore™ T200. For comparison between αvβ8-65 and hADWA11-2.4, a 5-fold dilution series of human αvβ8 (range, 0-100 nM in running buffer) was injected. For comparison of all three antibodies in the murine Fc format, a 5-fold dilution series of human αvβ8 (range, 0-50 nM in running buffer) was injected. All injections were performed over 180 seconds, with a dissociation time of 1200 seconds, at a flow rate of 100 μL/minute and a temperature of 37° C. Between sample injections, a regeneration reagent (10 mM glycine pH 1.5 for protein A chip; 10 mM glycine pH 1.7 for anti-murine Fc chip) was injected to regenerate the sensor chip (twice, over 30 seconds at 10 μL/minute for each injection). To determine the binding kinetics and affinity constants of the antibodies to human αvβ8 protein, the signal from the reference flow cell (FC1, with only protein A on the surface) was “double referenced” by subtracting the signal observed after injecting the sample over FC1, followed by subtracting the signal observed after injecting only running buffer. The kinetic constants were calculated using nonlinear regression fitting of the data, according to a 1:1 Langmuir binding model, using Biacore™ Evaluation Software (Cytiva Life Sciences).
The values of the kinetic constants kon, koff, and KD for the binding of αvβ8-65, hC6D4 and ADWA11-2.4 to the various species of αvβ8 proteins are summarized in Table 13. A 1:1 Langmuir binding model was used to determine the KD values. The sensograms observed for the bindings of the various αvβ8 proteins to the captured antibody are shown in FIG. 9A, FIG. 9B, and FIG. 10.
Background: Surface plasmon resonance follows binding to a sensor surface in real time, without labels.

B1: Hu.aVb8-65.H15L2 (aVb8-65.H15L2.hIgG1.LALAPG) (antibody, V domains shown)
VH: EVQLLESGGGLVQPGGSLRLSCAASGIDLSNYAMIWVRQAPGKGLEWVGIISSSDRIWYASWVKGRFTISRDNSKNTLYLQMNSLRAEDTAVYYCSRSVSNSYFDGWNLWGQGTLVTVSS
VL: DIQMTQSPSSVSASVGDRVTITCQASENINSLLAWYQQKPGKAPKLLIYRASTLASGVPSRFSGSGSGTDFTLTISSLQPEDFATYYCQSNYGFTGSGAFFYGFGQGTKVEIKR
notes: Human IgG1 LALAPG; also called PARS-20475-65 (IH) aVb8-65.H15L2.hIgG1.LALAPG; humanized αvβ8-65
Take B1: the dissociation constant Kd (commonly the constant that tells how readily two partners part at equilibrium) in experiment [1] turned out to be 1.04 nM; with cyno.aVb8.13650, 2.41 nM; in experiment [2], 1.23 nM; in experiment [3], 1.01 nM. Also, the dissociation rate constant (koff) (in general, the first-order rate constant of dissociation) came out at 0.000181 s⁻¹ in experiment [1], 0.000151 s⁻¹ in the experiment with cyno.aVb8.13650, 0.000152 s⁻¹ in experiment [2] and 0.000169 s⁻¹ in experiment [3]. Besides, the kon (in general, a measure of how fast the partners come together) is 174000 M⁻¹ s⁻¹ in experiment [1], 62700 M⁻¹ s⁻¹ with cyno.aVb8.13650, 123000 M⁻¹ s⁻¹ in experiment [2] and 168000 M⁻¹ s⁻¹ in experiment [3].

Source of the values: patent publication US20240327522A1 (Genentech, published 2024).
